Measured values published in publication PMC7593309, “Structural insights into Arabidopsis ethylene response factor 96 with an extended N-terminal binding to GCC box”.

Experiments:
AtERF96 WT [1] = biological target: T1, AtERF96 WT (Arabidopsis thaliana, UniProt Q9LSX0 1-131); experiment: X-ray crystallography; 1.76 A; fEMSA: 30 mM HEPES pH 7.4, 62.5 mM NaCl, 5% glycerol, 30 min RT, gel at 4 C; FP: 30 mM HEPES pH 7.4, 250 mM NaCl, 10% glycerol, 10 nM probe final (20 nM mixed 1:1); conditions: protein: recombinant; tags: N-terminal 6xHis (pET28a); blunt
AtERF96 WT [2] = biological target: T1, AtERF96 WT; experiment: fluorescence polarization; two-site fit (KdHi, KdLo); fEMSA: 30 mM HEPES pH 7.4, 62.5 mM NaCl, 5% glycerol, 30 min RT, gel at 4 C; FP: 30 mM HEPES pH 7.4, 250 mM NaCl, 10% glycerol, 10 nM probe final (20 nM mixed 1:1); conditions: protein: recombinant; tags: N-terminal 6xHis (pET28a); label: 5'-fluorescein on forward strand
AtERF96 WT [3] = biological target: T1, AtERF96 WT; experiment: EMSA; fEMSA: 30 mM HEPES pH 7.4, 62.5 mM NaCl, 5% glycerol, 30 min RT, gel at 4 C; FP: 30 mM HEPES pH 7.4, 250 mM NaCl, 10% glycerol, 10 nM probe final (20 nM mixed 1:1); conditions: protein: recombinant; tags: N-terminal 6xHis (pET28a); label: 5'-fluorescein on forward strand; blunt

T1 sequence (Q9LSX0 whole entry): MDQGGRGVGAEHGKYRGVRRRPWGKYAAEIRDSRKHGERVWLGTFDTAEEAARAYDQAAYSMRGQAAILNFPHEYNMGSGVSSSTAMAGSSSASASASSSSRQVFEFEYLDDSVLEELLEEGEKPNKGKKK

B1: GCC11 (crystal) (dsDNA)
DNA 1: TAGCCGCCAGC
DNA 2: GCTGGCGGCTA
B1: binds (AtERF96 WT [1]).

B2: GCC12 (dsDNA)
DNA 1: GTAGCCGCCAGC
DNA 2: GCTGGCGGCTAC
B2: binds (AtERF96 WT [2]).

B3: GCC11 probe (fEMSA) (dsDNA)
DNA 1: TAGCCGCCAGC
DNA 2: GCTGGCGGCTA
B3: binds (AtERF96 WT [3]).
